According to paper PMC4018323 (Cell, 2014):

T1: 6xHis-SUMO-tagged MYO18A motor domain (aa 408-1,242) (UniProt Q92614 408-1242)
T1 sequence (looked up): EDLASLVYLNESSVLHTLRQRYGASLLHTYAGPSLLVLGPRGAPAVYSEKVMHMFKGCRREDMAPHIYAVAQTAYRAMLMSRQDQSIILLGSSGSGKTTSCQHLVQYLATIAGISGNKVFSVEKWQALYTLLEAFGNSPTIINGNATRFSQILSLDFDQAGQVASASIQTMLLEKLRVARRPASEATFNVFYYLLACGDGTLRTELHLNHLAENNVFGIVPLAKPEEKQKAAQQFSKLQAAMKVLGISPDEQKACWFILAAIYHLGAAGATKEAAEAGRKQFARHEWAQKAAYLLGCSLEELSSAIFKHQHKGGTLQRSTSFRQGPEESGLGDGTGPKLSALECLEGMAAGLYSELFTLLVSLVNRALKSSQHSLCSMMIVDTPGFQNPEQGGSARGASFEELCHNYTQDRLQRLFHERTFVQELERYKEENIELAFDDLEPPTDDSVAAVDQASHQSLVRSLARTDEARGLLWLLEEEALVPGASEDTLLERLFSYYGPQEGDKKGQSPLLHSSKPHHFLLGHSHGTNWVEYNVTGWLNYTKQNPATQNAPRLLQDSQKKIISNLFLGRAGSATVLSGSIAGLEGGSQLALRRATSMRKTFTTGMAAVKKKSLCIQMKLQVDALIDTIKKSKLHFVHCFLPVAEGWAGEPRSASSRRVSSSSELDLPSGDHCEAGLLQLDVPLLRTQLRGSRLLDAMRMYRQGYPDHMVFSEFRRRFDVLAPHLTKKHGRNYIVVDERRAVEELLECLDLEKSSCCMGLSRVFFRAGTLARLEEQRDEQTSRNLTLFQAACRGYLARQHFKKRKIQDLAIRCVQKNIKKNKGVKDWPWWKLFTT


Target: T1, 6xHis-SUMO-tagged MYO18A motor domain …
Assay: pull-down

fold of interaction versus WT	Binder
2.2 fold	GOLPH3 DQ-DVQ phosphomimetic mutant, purified, bacterially expressed (natural protein, UniProt Q9H4A6 1-298, looked up) MTSLTQRSSGLVQRRTEASRNAADKERAAGGGAGSSEDDAQSRRDEQDDDDKGDSKETRLTLMEEVLLLGLKDREGYTSFWNDCISSGLRGCMLIELALRGRLQLEACGMRRKSLLTRKVICKSDAPTGDVLLDEALKHVKEDQPPEDVQNWIELLSGETWNPLKLHYQLRNVRERLAKNLVEKGVLTTEKQNFLLFDMTTHPLTNNNIKQRLIKKVQEAVLDKWVNDPHRMDRRLLALIYLAHASDVLENAFAPLLDEQYDLATKRVRQLLDLDPEVECLKANTNEVLWAVVAAFTK
1.9 fold	GOLPH3 EQ-EVQ phosphomimetic mutant, purified, bacterially expressed (natural protein, UniProt Q9H4A6 1-298, looked up) MTSLTQRSSGLVQRRTEASRNAADKERAAGGGAGSSEDDAQSRRDEQDDDDKGDSKETRLTLMEEVLLLGLKDREGYTSFWNDCISSGLRGCMLIELALRGRLQLEACGMRRKSLLTRKVICKSDAPTGDVLLDEALKHVKEEQPPEEVQNWIELLSGETWNPLKLHYQLRNVRERLAKNLVEKGVLTTEKQNFLLFDMTTHPLTNNNIKQRLIKKVQEAVLDKWVNDPHRMDRRLLALIYLAHASDVLENAFAPLLDEQYDLATKRVRQLLDLDPEVECLKANTNEVLWAVVAAFTK
